Reference: patent US7078511B1

Legend:
[1] = biological target: Drosophila melanogaster scavenger receptor type CI (Drosophila melanogaster)
[2] = biological target: hamster scavenger receptor type BI (hamster); test: ^125I-AcLDL (5 µg/ml) binding at 4° C. to ldlA[haSR-BI] cells, no competitor

Substance | ^125I-AcLDL Degradation (% No Competitor) (% No Competitor) [1] | 125I-AcLDL binding (ng/mg cell protein) [2]
Poly D-glutamic acid (peptide) | 34 | –
acetylated low density lipoprotein | 4.8 | 293
low density lipoprotein | 97.6 | –
